Publication PMC5636114 (PLoS ONE, 2017)

Legend:
[1] = biological target: the molecule itself; assay: AUC; sedimentation velocity (42,000 rpm) and equilibrium, 20 C, 20 mM Tris (pH 8.5), 250 mM NaCl, 5 mM DTT (low-salt condition), 0.05 to 1 mg/ml (complex also 8 mg/ml); global fit by SEDPHAT: monomer-dimer self-association (dimer to monomers) or A + B <-> AB hetero-association
[2] = biological target: the molecule itself; assay: SEC; Superose 12 analytical gel filtration of nickel-purified protein, 20 mM Tris (pH 7.5), 250 mM NaCl, 5 mM DTT, 0.5 mL/min; migration compared with the C54S/C83A control

Protein	stoichiometry N [1]	binding result [2]
FLASH NTD C54S/C83A/N101A/L104A/N108A, C-terminally hexahistidine-tagged (domain or fragment, human, UniProt Q9UKL3 51-137, looked up, FLASH N-terminal domain, human, residues 51-137, C54S/C83A/N101A/L104A/N108A; also called N101A/L104A/N108A mutant) SRNSLDLYEEILTEEGTAKEATYNDLQVEYGKAQLQMKELMKKFKEIQTQAFSAINEAQSLKKNISALIKTARVEINRKDEEISNLH	~3	–
FLASH NTD C54S/C83A/L118A/I119A, C-terminally hexahistidine-tagged (domain or fragment, human, UniProt Q9UKL3 51-137, looked up, FLASH N-terminal domain, human, residues 51-137, L118A/I119A in the background of C54S/C83A; also called FLASH NTD L118A/I119A mutant) SRNSLDLYEEILTEEGTAKEATYNDLQVEYGKAQLQMKELMKKFKEIQTQNFSLINENQSLKKNISAAAKTARVEINRKDEEISNLH	–	binds
FLASH NTD C54S/C83A/K88A/K92A/K95A, C-terminally hexahistidine-tagged (domain or fragment, human, UniProt Q9UKL3 51-137, looked up, also called K88A/K92A/K95A mutant) SRNSLDLYEEILTEEGTAKEATYNDLQVEYGKAQLQMAELMAKFAEIQTQNFSLINENQSLKKNISALIKTARVEINRKDEEISNLH	–	binds
FLASH NTD C54S/C83A/R128A/K129A/D130A, C-terminally hexahistidine-tagged (domain or fragment, human, UniProt Q9UKL3 51-137, looked up, also called R128A/K129A/D130A mutant) SRNSLDLYEEILTEEGTAKEATYNDLQVEYGKAQLQMKELMKKFKEIQTQNFSLINENQSLKKNISALIKTARVEINAAAEEISNLH	–	binds
FLASH NTD C54S/C83A/Y73A/L76A/Y80A, C-terminally hexahistidine-tagged (domain or fragment, human, UniProt Q9UKL3 51-137, looked up, also called Y73A/L76A/Y80A mutant) SRNSLDLYEEILTEEGTAKEATANDAQVEAGKAQLQMKELMKKFKEIQTQNFSLINENQSLKKNISALIKTARVEINRKDEEISNLH	–	binds
